# Test results taken from paper PMC2736960, “Cloning and characterization of a glucosyltransferase from Crocus sativus stigmas involved in flavonoid glucosylation” (BMC Plant Biology, 2009).
# Key:
# Assay type in all cases: biochemical, Crocus sativus
# [1] = substrate: O=c1c(O)c(-c2ccc(O)cc2)oc2cc(O)cc(O)c12; assay: HPLC of glucoside formed, Lineweaver-Burk; conditions: 7-O-glucoside formation, 2.5 mM UDP-glucose, 50 mM Tris-HCl pH 7.5, 14 mM 2-mercaptoethanol, 30°C
# Source text: (§1) HPLC of glucoside formed, Lineweaver-Burk on CsGT45
# [2] = substrate: O=c1c(O)c(-c2ccc(O)c(O)c2)oc2cc(O)cc(O)c12; assay: HPLC of glucoside formed, Lineweaver-Burk; conditions: 7-O-glucoside formation (preferred position), 2.5 mM UDP-glucose, 50 mM Tris-HCl pH 7.5, 14 mM 2-mercaptoethanol, 30°C
# Source text: as §1
# HPLC of glucoside formed = substrate: O=c1ccn([C@@H]2O[C@H](CO[P@@](=O)(O)O[P@@](=O)(O)O[C@H]3O[C@H](CO)[C@@H](O)[C@H](O)[C@H]3O)[C@@H](O)[C@H]2O)c(=O)[nH]1; assay: HPLC of glucoside formed; conditions: constant kaempferol as acceptor (level not given)
protein,measurement,setting,value
CsGT45 (Crocus sativus) (protein) MEQHQPNILVVTYPAQGHINPALHLAKHLAADTKGLLITFSTAISAHRKMFPESTEPDQEVEDGPITYIPFSDGYDDGFQRDKHDGKQFRSRFKTVGSNTLSAIIQNLEHRGRKVSCVIYTFFVSWAADVARQHAIPSVQYWIQPATVFAIYYHYFHGYESVVAAHSHDPSYPINLPGLSPVQVRDLPSFLTIKPDDPYAVVLSMIRDSFEGLDREETKTKVLVNTFGQLEADAILAVDKMDIIPVGPILPCKGGVSRGDLLKEDEKGYMEWLDSKPENSVVYVSLESLAVLKKQQKFLILKGLKDSGRPYLWVVRRDSGLEGVELGDWDGDGDGDNGMVVGWCSQVSVLSHPSVGCFVTHCGWNSTMESLASGVPTIGVPQWSDQPTCAALAEKDWGIGVRSEVNGDGILEGGELKRCLDLVLGDGERGVEIRRKVEFWKDKATEAISFGGSSDKNLRTFVDQITGYDPNVSSVGFWKDKAIHRQHCEESESASPS,Km,[1],15.6 ± 1.2 µM
same,Km,[2],21.50 ± 2.3 µM
same,Km,HPLC of glucoside formed,600 µM
